Our source for the Renilla luciferase activity, +rapamycin against no rapamycin values is patent publication US20090253131A1, “HYBRID FUSION REPORTER AND USES THEREOF” (Promega Corporation, priority 2007, published 2009).

What all share (experiment): cell-based or functional assay
Assay [1] concerns the target Rluc8 (112-311)-FKBP (Renilla) (UniProt P27652).
Assay [2] has as its target hRL (92-311)-FKBP (Renilla) (UniProt P27652).
Assay [3] shares this target. The source holds these as a separate data set.
In assay [4] the target is FKBP-hRL (112-311) (Renilla) (UniProt P62942).
Assay [5] has the same target. The source holds these as a separate data set.
The target of assay [6] is hRL (112-311)-FKBP (Renilla) (UniProt P27652).
For assay [7] the target is unchanged. This is another data set of the same source.
Assay [8] deals with Rluc8 (92-311)-FKBP (Renilla) (UniProt P27652).
Assay [9] has as its target FKBP-hRL (92-311) (Renilla) (UniProt P62942).
Assay [10] has the same target. This is another data set of the same source.

Read-outs that look alike come from different tables or passages of the source.

Sequence of FKBP-hRL (112-311) (Renilla) (P62942 other isoform, or with tags, fused parts or gaps): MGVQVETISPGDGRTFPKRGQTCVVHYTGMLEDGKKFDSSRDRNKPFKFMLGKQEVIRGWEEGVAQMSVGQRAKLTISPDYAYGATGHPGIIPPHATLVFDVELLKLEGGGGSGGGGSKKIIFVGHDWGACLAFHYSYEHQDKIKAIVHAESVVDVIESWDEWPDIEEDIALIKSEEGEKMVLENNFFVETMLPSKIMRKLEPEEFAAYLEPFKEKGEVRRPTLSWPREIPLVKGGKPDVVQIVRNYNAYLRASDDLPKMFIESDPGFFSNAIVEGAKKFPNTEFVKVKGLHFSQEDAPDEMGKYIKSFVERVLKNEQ
Sequence of FKBP-hRL (92-311) (Renilla) (P62942 other isoform, or with tags, fused parts or gaps): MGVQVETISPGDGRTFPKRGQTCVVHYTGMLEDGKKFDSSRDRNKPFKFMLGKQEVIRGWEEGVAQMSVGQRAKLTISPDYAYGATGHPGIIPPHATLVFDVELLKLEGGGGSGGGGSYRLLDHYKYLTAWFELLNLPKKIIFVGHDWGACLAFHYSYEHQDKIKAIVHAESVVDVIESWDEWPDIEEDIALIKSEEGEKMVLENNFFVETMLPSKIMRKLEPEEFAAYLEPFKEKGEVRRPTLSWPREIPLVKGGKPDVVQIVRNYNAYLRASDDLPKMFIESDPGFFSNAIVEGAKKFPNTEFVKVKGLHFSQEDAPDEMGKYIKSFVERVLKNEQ
Sequence of hRL (1-111)-FRB (P27652 other isoform, or with tags, fused parts or gaps): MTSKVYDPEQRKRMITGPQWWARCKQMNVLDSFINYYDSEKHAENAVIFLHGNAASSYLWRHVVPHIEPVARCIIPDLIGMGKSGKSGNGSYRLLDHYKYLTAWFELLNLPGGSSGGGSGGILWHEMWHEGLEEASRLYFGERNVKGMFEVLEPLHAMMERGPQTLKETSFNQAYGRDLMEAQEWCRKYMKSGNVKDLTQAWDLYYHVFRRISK
Sequence of hRL (1-91)-FRB (P27652 other isoform, or with tags, fused parts or gaps): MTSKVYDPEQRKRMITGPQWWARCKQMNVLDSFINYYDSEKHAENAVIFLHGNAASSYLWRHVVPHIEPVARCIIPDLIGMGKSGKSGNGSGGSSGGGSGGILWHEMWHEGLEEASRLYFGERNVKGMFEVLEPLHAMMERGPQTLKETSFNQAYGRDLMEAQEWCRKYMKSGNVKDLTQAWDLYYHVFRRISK
Sequence of hRL (112-311)-FKBP (Renilla) (P27652 other isoform, or with tags, fused parts or gaps): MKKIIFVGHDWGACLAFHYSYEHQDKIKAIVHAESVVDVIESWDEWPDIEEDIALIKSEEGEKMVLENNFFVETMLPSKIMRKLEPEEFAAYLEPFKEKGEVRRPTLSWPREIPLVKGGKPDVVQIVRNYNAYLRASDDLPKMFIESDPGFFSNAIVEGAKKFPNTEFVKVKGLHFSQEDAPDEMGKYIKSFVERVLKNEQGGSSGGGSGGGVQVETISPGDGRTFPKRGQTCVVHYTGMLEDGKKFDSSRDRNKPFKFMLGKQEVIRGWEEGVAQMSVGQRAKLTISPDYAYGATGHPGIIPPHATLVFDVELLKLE
Sequence of hRL (92-311)-FKBP (Renilla) (P27652 other isoform, or with tags, fused parts or gaps): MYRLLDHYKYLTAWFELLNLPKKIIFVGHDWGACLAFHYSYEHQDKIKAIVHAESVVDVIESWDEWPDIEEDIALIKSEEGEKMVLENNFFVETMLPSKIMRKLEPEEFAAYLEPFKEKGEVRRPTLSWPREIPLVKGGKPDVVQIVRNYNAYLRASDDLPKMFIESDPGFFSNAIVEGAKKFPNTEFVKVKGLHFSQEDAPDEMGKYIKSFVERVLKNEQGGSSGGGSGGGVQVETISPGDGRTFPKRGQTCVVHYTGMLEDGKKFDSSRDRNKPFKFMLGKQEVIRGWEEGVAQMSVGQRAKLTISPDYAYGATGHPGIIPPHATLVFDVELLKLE
Sequence of Rluc8 (1-91)-FRB (P27652 other isoform, or with tags, fused parts or gaps): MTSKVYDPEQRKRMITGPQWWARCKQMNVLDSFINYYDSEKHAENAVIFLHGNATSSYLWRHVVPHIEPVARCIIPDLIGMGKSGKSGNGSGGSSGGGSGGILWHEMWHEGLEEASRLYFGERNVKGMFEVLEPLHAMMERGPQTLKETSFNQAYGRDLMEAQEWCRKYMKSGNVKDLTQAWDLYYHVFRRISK
Sequence of Rluc8 (112-311)-FKBP (Renilla) (P27652 other isoform, or with tags, fused parts or gaps): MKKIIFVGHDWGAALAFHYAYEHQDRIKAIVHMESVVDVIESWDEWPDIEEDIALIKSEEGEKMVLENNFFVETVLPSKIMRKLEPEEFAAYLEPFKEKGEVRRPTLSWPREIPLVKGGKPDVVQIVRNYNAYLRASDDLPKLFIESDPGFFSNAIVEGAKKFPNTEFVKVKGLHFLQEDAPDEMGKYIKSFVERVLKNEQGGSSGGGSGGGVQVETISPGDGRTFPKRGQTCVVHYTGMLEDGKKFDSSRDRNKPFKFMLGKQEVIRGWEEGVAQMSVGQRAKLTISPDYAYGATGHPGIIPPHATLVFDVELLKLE
Sequence of Rluc8 (1-111)-FRB (P27652 other isoform, or with tags, fused parts or gaps): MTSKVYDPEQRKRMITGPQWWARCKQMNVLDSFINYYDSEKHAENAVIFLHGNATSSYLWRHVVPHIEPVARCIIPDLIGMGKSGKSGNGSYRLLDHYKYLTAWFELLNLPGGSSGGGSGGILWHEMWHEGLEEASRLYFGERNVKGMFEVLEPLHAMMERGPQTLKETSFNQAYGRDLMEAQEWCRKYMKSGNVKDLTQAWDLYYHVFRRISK
Sequence of Rluc8 (92-311)-FKBP (Renilla) (P27652 other isoform, or with tags, fused parts or gaps): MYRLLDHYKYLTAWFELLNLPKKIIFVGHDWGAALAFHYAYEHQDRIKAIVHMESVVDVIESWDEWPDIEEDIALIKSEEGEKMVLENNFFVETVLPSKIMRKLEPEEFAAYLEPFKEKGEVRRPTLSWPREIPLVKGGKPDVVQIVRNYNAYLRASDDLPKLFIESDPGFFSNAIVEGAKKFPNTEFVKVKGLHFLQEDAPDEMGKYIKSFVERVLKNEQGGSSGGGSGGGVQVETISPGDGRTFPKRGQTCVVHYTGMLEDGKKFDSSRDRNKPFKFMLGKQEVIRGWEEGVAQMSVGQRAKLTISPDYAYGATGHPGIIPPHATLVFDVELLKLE

For the substance “Rluc8 (1-111)-FRB (from UniProt P27652 1-111; P42345 2021-2113)”, the Renilla luciferase activity, +rapamycin against no rapamycin in assay [1] was determined as 17 fold. In the case of “FRB-hRL (1-91) (from UniProt P42345 2021-2113; P27652 1-91)”, the values for the Renilla luciferase activity, +rapamycin against no rapamycin in [2] and in assay [3] were 10.4 fold and 134 fold, respectively. For the substance “hRL (1-111)-FRB (from UniProt P27652 1-111; P42345 2021-2113)”, the Renilla luciferase activity, +rapamycin against no rapamycin in assay [4] is 114 fold; in assay [5], 81 fold. Turning to “FRB-hRL (1-111) (from UniProt P42345 2021-2113; P27652 1-111)”, the Renilla luciferase activity, +rapamycin against no rapamycin in [6] was found to be 51 fold; in assay [7] it was 46 fold; in assay [5], 5.3 fold.

For “Rluc8 (1-91)-FRB (from UniProt P27652 1-91; P42345 2021-2113)”, the Renilla luciferase activity, +rapamycin against no rapamycin in assay [8] was found to be 4 fold. For “hRL (1-91)-FRB (from UniProt P27652 1-91; P42345 2021-2113)”, the Renilla luciferase activity, +rapamycin against no rapamycin stood at 13.5 fold in [9] and 8.6 fold in [10].
